# B1: OVA: model antigen given intranasally at 100 μg alone or together with αGalCer (protein, UniProt P01012 2-386, looked up)
# Ovalbumin: GSIGAASMEFCFDVFKELKVHHANENIFYCPIAIMSALAMVYLGAKDSTRTQINKVVRFDKLPGFGDSIEAQCGTSVNVHSSLRDILNQITKPNDVYSFSLASRLYAEERYPILPEYLQCVKELYRGGLEPINFQTAADQARELINSWVESQTNGIIRNVLQPSSVDSQTAMVLVNAIVFKGLWEKAFKDEDTQAMPFRVTEQESKPVQMMYQIGLFRVASMASEKMKILELPFASGTMSMLVLLPDEVSGLEQLESIINFEKLTEWTSSNVMEERKIKVYLPRMKMEEKYNLTSVLMAMGITDVFSSSANLSGISSAESLKISQAVHAAHAEINEAGREVVGSAEAGVDAASVSEEFRADHPFLFCIKHIATNAVLFFGRCVSP
# Tested on: EG7 tumor cells
# Assay: EG7 tumor challenge after intranasal immunization with OVA and αGalCer
# Format: in vivo
# Details: C57BL/6 mice
# Protocol: To confirm whether αGalCer could be used as a nasal vaccine adjuvant inducing anticancer activity, C57BL/6 mice were immunized with 100 μg of OVA alone or together with αGalCer (0.125, 0.5, 2.0 μg) by the intranasal administration three times at one-week intervals. Two weeks after the final immunization, 3×10^6 EG7 tumor cells were subcutaneously inoculated in the left flank of the immunized mice. On the 14th day of the inoculation, the mice were sacrificed and the palpable tumors were weighed.
molecule,measurement,setting,value
B1,mice with tumor masses,"100 μg OVA alone intranasal, 3×10^6 EG7 cells s.c., day 14",all mice
same,tumor weight compared with vehicle alone,"OVA alone through the nasal cavity, p<0.05",significantly heavy
